Assay results published in patent US20050079613A1, “Downregulation of cell surface glycoproteins by a family of human ubiquitin ligases” (Oregon Health & Science University, priority 2002, published 2005).

System: Fas (CD95), MHC I, HLA-A2.1, CD4, transferrin receptor, B7.1
Test: Surface glycoprotein panel on transfected HeLa cells, flow cytometry
Format: cell-based, human
Settings: HeLa cells transfected with MARCH plasmid
Procedure: Flow cytometry. Cells were removed from tissue culture dishes with 0.05% Trypsin-EDTA (Invitrogen), washed with ice-cold PBS, and incubated with appropriate antibody for 30 minutes at 4° C. The cells were washed with ice-cold PBS and either resuspended in ice-cold PBS or incubated with PE-conjugated anti-mouse secondary antibody (DAKO) and washed again before analysis with a BD Biosciences (San Jose, Calif.) FACScalibur flow cytometer.
The ability to downregulate MHC I is common to KSHV-K3, KSHV-K5, MHV68-K3 and MV-M153R (Coscoy and Ganem, 2000, supra; Guerin et al., 2002, supra; Ishido et al., 2000b supra; Stevenson et al., 2000, supra). Additional substrates are ICAM-1 and B7.2 (but not B7.1) for KSHV-K5, as well as CD95 and CD4 for M153R (Coscoy and Ganem, 2001, supra; Guerin et al., 2002, supra; Ishido et al., 2000a, supra; Mansouri et al., 2003, supra). Since only low copy numbers were detected in HeLa cells for transcripts corresponding to each of the MARCH-proteins (FIG. 7C, and data not shown), HeLa cells were transfected with expression plasmids for MARCH-I, II, III, IV, V and VIII. Surface expression of selected glycoproteins was monitored upon transfection. […] Surface expression of the respective markers was analyzed by flow cytometry. […]

B1: MARCH-V: four-transmembrane human RING-CH protein, SEQ ID NOS:47 and 58 (protein, listed as Homo sapiens)
chain: MPDQALQQMLDRSCWVCFATDEDDRTAEWVRPCRCRGSTKWVHQACLQRWVDEKQRGNSTARVACPQCNAEYLIVFPKLGPVVYVLDLADRLISKACPFAAAGIMVGSIYWTAVTYGAVTVMQVVGHKEGLDVMERADPLFLLIGLPTIPVMLILGKMIRWEDYVLRLWRKYSNKLQILNSIFPGIGCPVPRIPAEANPLADHVSATRILCGALVFPTIATIVGKLMFSSVNSNLQRTILGGIAFVAIKGAFKVYFKQQQYLRQAHRKILNYPEQEEA
reduction in surface levels of any of the glycoproteins of the panel: No reduction in surface levels
